Measured values taken from PMC5472695.

Target: His-tagged recombinant amelogenin (wild-type) (mouse) (UniProt P63277)
Assay: SDS PAGE with anti-amelogenin Western blot; crude 3% acetic acid E. coli extract and nickel column fractions; non-reducing SDS loading buffer, heated at 90°C for 1.5 min, 12% resolving gel; blot with rabbit anti-amelogenin antibody

Work on “His-tagged recombinant amelogenin (wild-type) (from UniProt P63277 17-210) (natural protein)” yielded a stoichiometry N of 2.
